From patent publication US20050182242A1, “Global analysis of protein activities using proteome chips” (priority 2001, published 2005)

What was measured:
PI(3)P liposomes = assay: Yeast proteome chip probed with PI(3)P liposomes; conditions: liposome binding signal on yeast proteome chip, Cy3-streptavidin detection
Description: (§1) To identify PI-binding proteins in yeast, liposomes were used as probes because the liposome provides the most relevant physiological condition to assay the interactors. Six types of liposomes were used. Each contains phosphatidylcholine (“PC”) with 1% (w/w) N-(biotinoyl)-1,2-dihexadecanoyl-sn-glycero-3-phosphoethanolamine, triethylammonium salt (biotin DHPE). The biotinylated lipid serves as a label that can be detected by Cy3-streptavidin (21). In addition to PC, the five other liposomes contain either 5% (w/w) PI(3)P, PI(4)P, PI(3,4)P2, PI(4,5)P2, or PI(3,4,5)P3 (FIG. 3A).
The protein-liposome interaction was assayed as follows. Appropriate amounts of each lipid in chloroform were mixed and dried under nitrogen. The lipid mixture was resuspended in TBS buffer by vortexing. The liposomes were created by sonication. Blocked proteome chips were washed three to five times in PBS buffer, and the extra liquid on the glass surface was removed by tapping the slides vertically on a KIMWIPE™. 200 μl of liposome solution was added to the proteome chip and immediately covered by a hydrophobic plastic cover slip (GRACE BIO-LAB™, USA). After trapped air bubbles were removed, the chip was incubated in a humidity chamber at RT for one hour. To remove the cover slip, the chip was immersed into large volume of PBS buffer (50 ml), so that the slip would float away. […]

PI(3,4,5)P3 liposomes = assay: Yeast proteome chip probed with PI(3,4,5)P3 liposomes; conditions: liposome binding signal on yeast proteome chip, Cy3-streptavidin detection
Description: as §1
The protein-liposome interaction was assayed as follows. Appropriate amounts of each lipid in chloroform were mixed and dried under nitrogen. The lipid mixture was resuspended in TBS buffer by vortexing. The liposomes were created by sonication. Blocked proteome chips were washed three to five times in PBS buffer, and the extra liquid on the glass surface was removed by tapping the slides vertically on a KIMWIPE™. 200 μl of liposome solution was added to the proteome chip and immediately covered by a hydrophobic plastic cover slip (GRACE BIO-LAB™, USA). After trapped air bubbles were removed, the chip was incubated in a humidity chamber at RT for one hour. To remove the cover slip, the chip was immersed into large volume of PBS buffer (50 ml), so that the slip would float away. The chip was then moved to a second PBS bath (>50 ml) and washed 3×5 min with shaking at RT. After removing extra liquid on the surface of the chip, about 100 μl of Cy3 or Cy5 conjugated streptavidin (PIERCE™, USA; 1:2000 to 1:4000 dilution) was added to the surface and covered by a hydrophobic plastic cover slip (GRACE BIO-LABS™, USA). The chip was incubated for greater than 30 min in the dark at RT. The chip was then washed as described above. To completely remove the liquid on the chip, the chip was spun to dryness at 1500-2000 rpm for 5-10 min at RT.
• 1. S. Fields, Y. Kohara, D. J. Lockhart, Proc. Natl. Acad. Sci. 96, 8825 (1999); A. Goffeau et al., Science 274, 563 (1996). • 2 P. Ross-Macdonald et al., Nature 402, 413 (1999); J. L., DeRisi, V. R. Iyer, P. O. Brown, Science 278, 680 (1997); E. A. Winzeler et al., Science 285, 901 (1999). P. Uetz et al., Nature 403, 623 (2000); T. Ito et al., Proc. Natl. Acad. Sci. USA. 97, 1143 (2000) • 3 H. Zhu, M. Snyder, Curr. Opin. Chem. Biol. 5, 40 (2001). • 4 M. R. Martzen et al., Science 286, 1153 (1999). • 5 H. Zhu et al., Nat. Genet. 26, 283 (2000). • 6 G. MacBeath, S. L. Schreiber, Science 289, 1760 (2000). • 7 A. Caveman, J. Cell Sci. 113, 3543 (2000). • 8 P. Arenkov et al., Anal. Biochem 278, 123 (2000). • 9 D. A. Mitchell, T. K. Marshall, R. J. Deschenes, Yeast 9, 715 (1993). The expression vector pEGH was created by inserting an RGS-HisX6 epitope tag between the GST gene and the polycloning site of pEG(KG). The yeast ORFs were cloned using the strategy described previously (5), except every step was done in a 96-well format. Plasmid DNAs confirmed by DNA sequencing were reintroduced into both yeast (Y258) and E. coli (DH5a). […] 0.1 mM calcium was present in buffers in all subsequent steps. The chip was washed three times with PBS at RT. Cy3-conjugated streptavidin (Jackson IR, USA) (1:5000 dilution) was added to the chip and incubated for 30 min at RT. After extensive washing, the chip was spun dry and scanned using a microarray scanner; the data was subsequently acquired with the GENEPIX™ array densitometry software (Axon, USA). • 12 S. S. Hook, A. R. Means, Annu. Rev. Pharmacol. Toxicol.41, 471 (2001). • 13 M. S. Cyert, R. Kunisawa, D. Kaim, J. Thorner, Proc. Natl. Acad. Sci. USA 88, 7376 (1991). • 14 D. A. Stirling, K. A. Welch, M. J. Stark, EMBO J. 13, 4329 (1994). • 15 F. Bohl, Kruse, EMBO J. 19, 5514 (2000); E. Bertrand et al., Mol. Cell 2, 437 (1998). • 16 D. C. Winter, E. Y. Choe, R. Li, Proc. Nat. Acad Sci. USA 96, 7288 (1999). • 17 C.

PI(4,5)P2 liposomes = assay: Nitrocellulose membrane assay: adhered PI(4,5)P2 liposomes probed with GST fusion proteins; assay type: binding; conditions: dilution series, anti-GST antibodies, ECL
Description: A. PI(4,5)P2 liposomes were first adhered to a nitrocellulose membrane, which was blocked by BSA; a dilution series of Rim15p, Eno2p, and Hxk1p, and a GST control were used to probe the membrane. The bound proteins were detected using the anti-GST antibodies and an enhanced chemiluminescence (“ECL”) kit.
(§2) Therefore, six proteins, i.e., Rim15p, Eno2p, Hxk1p, Sps1p, Yg1059wp, and Gcn2p, were further tested for phosphoinositol binding using two types of standard assays (Williamson, 2000, Nat. Struct Biol. 7(10):834-7). For Rim15p, Eno2p, and Hxk1p, PI(4,5)P2 liposomes were first adhered to a nitrocellulose membrane, which was then blocked by BSA; different amounts of the GST fusion proteins and a GST control were used to probe the membrane, and bound proteins were detected using anti-GST antibodies. […] We also carried out the reverse assay for four GST fusion proteins, Rim15p, Sps1p, Yg1059wp, and Gcn2p (Guerra et al., 2000, Biosci. Rep. 20: 41). Different amounts of these purified proteins were spotted onto nitrocellulose filters and probed with the six different liposomes (FIG. 5B). The bound liposomes were detected using a horseradish peroxidase (“HRP”)-conjugated streptavidin.

six different liposomes = assay: Reverse membrane assay: proteins spotted on nitrocellulose probed with six liposomes; assay type: binding
Protocol: B. A reverse assay was carried out to test for protein-lipid interactions. The proteins were prepared and spotted onto nitrocellulose filters in a dilution series and probed with the six different liposomes. As a control, the six liposomes were also added to the BSA-blocked membrane. After extensive washing, the bound liposomes were detected using an HRP-conjugated streptavidin and an ECL kit.
C. Linear correlation between the binding signals and the amounts of Rim15p in a membrane assay. When liposome-binding signals of Rim15p from the membrane assay (FIG. 4B) were plotted against the concentration gradient of the spotted Rim15p, the binding signals of PI(4)P, PI(3,4)P2, PI(3)P, and PI(4,5)P2 correlated linearly with the amounts of Rim15p.
as §2

RIM15: yeast protein kinase, regulator of glucose metabolism, GST-HisX6 fusion
PI(3)P (PI(3)P liposomes): 52.50 | PI(3, 4, 5)P3 (PI(3,4,5)P3 liposomes): 1219.28 | binding to PI(4,5)P2 liposomes on membrane (PI(4,5)P2 liposomes): tightly bound PI(4,5)P2 | liposome binding in reverse membrane assay (six different liposomes; HRP-conjugated streptavidin): bound strongest to PI(3)P and PI(4)P and PI(3,4)P2 | affinity of PI(4)P relative to control PC (six different liposomes; membrane assay, signal vs amount of protein): at least three-fold higher
